This assay addresses endogenous CD64 (FcγRI) on primary human myeloid cells (human (endogenous in primary human monocytes)) (UniProt P12314).

Results on two substances are retold here after PMC11937023.

UniProt P12314, sequence (P12314 16-374): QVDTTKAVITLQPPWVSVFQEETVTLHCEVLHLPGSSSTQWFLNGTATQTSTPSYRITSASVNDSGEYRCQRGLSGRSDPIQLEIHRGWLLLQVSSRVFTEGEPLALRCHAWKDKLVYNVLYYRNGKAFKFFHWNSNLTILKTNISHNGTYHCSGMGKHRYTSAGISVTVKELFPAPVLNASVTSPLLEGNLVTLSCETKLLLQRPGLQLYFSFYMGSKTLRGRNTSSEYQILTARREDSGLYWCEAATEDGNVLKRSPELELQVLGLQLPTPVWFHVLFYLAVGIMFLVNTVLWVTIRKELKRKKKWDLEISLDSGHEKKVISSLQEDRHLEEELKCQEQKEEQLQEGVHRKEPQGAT

guselkumab (antibody) showed an IC50 for inhibiting IL-23 signaling (luciferase in IL-23 reporter cells) in co-culture with R848-stimulated, IFNγ-primed CD64+ THP-1 cells, 16 hours of 0.092 nM.
Then “guselkumab modified to contain LALA mutations in the Fc domain (antibody)”, with 0.477 nM.
